Molecular target: T1, MATβV1Δ16, MATβV1 lacking the first 16 amino acids (human, UniProt Q9NZL9 17-334)
T1 construct: MATβV1 (splicing variant 1 of mat2B), human, lacking the first 16 amino acids; Cloned via NcoI and XhoI sites like MATβV1; source: cloned in the HIS-parallel vector
Experiment: SEC; MATα and MATβ incubated 1 h at 4°C in 50 mM HEPES pH 7.5, 10 mM MgCl2, 50 mM KCl, 300-500 µM NADP; Superdex 200 10/300 in 200 mM NaCl, 25 mM HEPES pH 7.5, 1 mM MgCl2, 5 mM KCl, 1 mM TCEP; also tested for the effect of NADP
Settings: both partners purified

B1: MATα1, catalytic subunit of methionine adenosyltransferase (mat1A gene) (enzyme)
chain: not shown
notes: MATα1, catalytic subunit encoded by mat1A, human; construct provided by SGC Oxford; His tag cleaved with TEV protease; also called MAT(α1)4; source: E. coli BL21(DE3), purified (nickel resin, HiTrap Q ion exchange, Superdex 200 gel filtration)
- binding result: binds

— PMC4107924 (IUCrJ, 2014)
